According to the NTF2 design screens of Basanta et al. (2020):

experiment: protease stability score; higher = more stable; yeast display proteolysis, trypsin and chymotrypsin;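 also: relative to predicted unfolded state with 0 unfolded-like and 1 meaning tenfold more protease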

Q: Which protease stability score does the source give for “SDLEKETEELTRLFLENLVTGDEKTARELIDPHAMTDIGDFHIHGRDRTFRHIEELWRHWGVDRIRIHHDHIDIQGNKSYIEGTIHINGQSRKVHLIIIVFNGRIDKVRMHIR” here?
A: The protease stability score was 1.36.

Q: With “SEEDEIVRKLSEIMIHSLETGDFDSFRELADPDYRIETEDHEIVGMEEFERWLKEHLDRFDYDKWEYHSLHIYGDKVKMDIELHLDIDGVKRTHDVYIIIRKYNGQWIVESFMFK” as the sequence, how does the protease stability score read?
A: The protease stability score was -0.384.

Q: With “DEDSEVLSRILLHLTHHFSTGDFKEVTEMFDPHARAFVGDKELVGMELLRKFLHDLTKRLGVDHHDLRDDHIEIQGDKLRSEGKLRIDVNGREIKHHVHWILEKIDGRWVIREFRIV” as the sequence, how does the protease stability score read?
A: Its protease stability score is 1.23.

Q: With “SEFEHRAHEVLEIMSNALHTGDEERMQKLMDPNVRIVIGDKENIGRETFMYWVKEIRFEIEIHIHRIDVINGRIHADTRLRIIIHYNGREHRDHFDVHFDIQKVDGRWVVHRIIVD” as the sequence, how does the protease stability score read?
A: The protease stability score was 2.1.

Q: Which protease stability score does the source give for “DNTEENTRTLLELLKRVWRTGDWSQLDKLLDPNARAEINGVELHGREKVVEVFREELERLGVEYTDSRVKDMKVQGDKAIIDLELETEQGDKTHMHDLHIETRKVDGRWFVEHIIVH” here?
A: The protease stability score was 1.75.

Q: For “DEERQTLEEWARELLQIHKTGDEERHKEYADPDDLLRIGDKDFHGMEHVLHALVQHWEKMGVKHLEIKRLRVINGVMHVEGVLHVGDKTHDVKLHLFIFNGRIERVEIRIE”, which protease stability score is on record?
A: The protease stability score was 1.33.

Q: With “DEIEKHHRELIELLFHWWHTGDFDSFHRFADPDVKLDFNGVEIHGRERANEFMTRLKEEIRIDDVKLERVQVIDGRMIIHGRRDGNVNGQKEDREVELYVIAINGRIKSVEIRIR” as the sequence, how does the protease stability score read?
A: Its protease stability score is 1.71.

Q: For “DEATEAWRVVVELIKRANETGDEETRSENMDPETRMSIDGVDFIGREEVIKHVHKVKNMRIKHVEINDVRIQGDKIHVRGTLHGTVNGRETRIDVVLYVWKINGQWIIHSIEFI”, which protease stability score is on record?
A: The protease stability score was 1.5.

Q: For “DDEEEEAKEMSEHTLQWFFTGDEEKLYKYIDPDVRVRVLIDGRELVYHGREVFLEFLKRQIEELGIDHVHLRRRHVIDGVLEVHGTINVDGREIELIIFADKYNGRWRLKLIEINVR”, which protease stability score is on record?
A: Its protease stability score is 1.69.

Q: With “DEHKEEFREWVERLEHVLKTGNEDELHELADPDVKVRIGDKEIHGMHEVLRFILEFYKKLGIDHRHLRIDDYRVQGDFLHIDGHLELTFNGRKHTHQLHIVVLKVNGRWILKEIRVS” as the sequence, how does the protease stability score read?
A: The protease stability score was 2.25.

Q: For “REEEDNAEKFWEEFSKSLLTGDEDHMEELADPNARMRINGREKVGREEVRKELSHLFTHIRLKSIHLKDFKFFDGRLDIDGSLDGHINGKRREIEVHVHLWKVNGRWTLETLKIN”, which protease stability score is on record?
A: The protease stability score was 1.17.

Q: For “DESKESARSFEDLLQEVRRTGDERKLVNLIDPHVKININGKIFHGWEDLEREFHRIKNIRFHVERMRVVGDKIDVRGTLHVDGQTVDTEIDVYKIDGRWAIESLRIG”, which protease stability score is on record?
A: Its protease stability score is 1.43.

Q: For “DETDEWAHKLMELILEYWLTGDWDLFNELADPNVKLIINGRESVGREEVREMLERTLKEIRLRRIEIDHVRIYDGRAQTHSRTDGDVNGKVTETHMHLHVLLINGRIRHVEIRLH”, which protease stability score is on record?
A: The protease stability score was 2.02.

Q: For “SEDEKQLEHAVKLFIESLRTGDEHSLENLVDPNVRMQINGVELHGRELFIHLFREWRFHSVHLRHLDLQGDKVHLDGKLDVRFDGRRYEVILRTHIEKIDGRWHLRYMYEE”, which protease stability score is on record?
A: The protease stability score was 1.45.

Q: With “HEEQKAIEEWAKRLWDVLLTGDEDELHELLDPHVKLEVHVDGKTIHRHGREEVIRFMVEMRIRDFKIEHVQMYGDKLHMNTRSRGIYNGKHRETEVSIIVTVVNGRLKMIIIEIR” as the sequence, how does the protease stability score read?
A: Its protease stability score is 2.06.

Q: For “DETTELAREAIELLVKSLRTGDWDTSSRLLDPHTRYHYGEFNSHGREMFIISLEFLWKHLRIEDVHITHIRSIGDKVDVDTVLRVNVNGQVVDVEFFIHAHKVNGKWLYTEIRVR”, which protease stability score is on record?
A: Its protease stability score is 1.16.

Q: With “DEDKDMKDTMLKDLLHTLETGDEDIWAKLIDPNTQVDIGDKRIHGREKIVEHFRRADVLTIHHVRLRQFHHFDGRAHMNVQFDGTVQINGVEVRFDVTVKLVFLKVNGRWFLHSEERE” as the sequence, how does the protease stability score read?
A: The protease stability score was 1.15.

Q: With “DEDEREAERSIREELEYTRTGDEDFIKRLADPHVKLNIDGQRHHGRETVVKIMVEARIKDLHIERLTVIDGRVHMRGRMEGNFNGRDTEVEVHIKLKKVNGQWHVRDFEIR” as the sequence, how does the protease stability score read?
A: The protease stability score was 1.14.

Q: For “DEDEKLSREAFRKLLEDRETGDEHMLTRNADPRARIEVNGVELHGREHAEKFWRHYHEKFKNIRINIEHHEIQGEKVIIRGILHVNGVNLTVEIHALKINGKWLNEEFSVK”, which protease stability score is on record?
A: Its protease stability score is 0.129.

Q: Which protease stability score does the source give for “SEAEESARKLTHDILRLFLTGDEDLISRYFDPNVRHHINGQEEHGMEKMVKMLNHMRFRDMHLRDVRIHIIDGVATAHVEGELHGEVNGVRRDIKSELIIITEKFNGRWRLSSISFIIE” here?
A: Its protease stability score is 0.256.
